This passage reports Km and Kd results from PMC5854381, “Dynamics of Scabin toxin. A proposal for the binding mode of the DNA substrate”.

Data set [1] relates to NC(=O)c1ccc[n+]([C@@H]2O[C@H](COP(=O)(O)OP(=O)(O)OC[C@H]3O[C@@H](n4cnc5c4ncn4ccnc54)[C@H](O)[C@@H]3O)[C@@H](O)[C@H]2O)c1. The data set is described as follows: purified protein. To be noted: pH 7.9.
Data set [2] deals with Scabin WT (Streptomyces scabies, UniProt C9Z6T8 26-200). As to the kind of experiment: fluorescence anisotropy; no NAD+ mentioned; text labels this WT value N110A [sic]; Anisotropy: 5 uM Cy3-dsDNA, 25 mM Tris-HCl pH 8.2, 100 mM NaCl, 22 C. To be noted: protein: recombinant; label: 5' Cy3 on strand 1; blunt. (Polarisation of emitted light reports the rotation of a fluorescent probe.)

(Streptomyces scabiei 87.22): the Km in data set [1] came out at 68 ± 3 µM.

B1: Cy3-dsDNA 21 bp (dsDNA)
DNA 1: GGAAGAGAGAGAGAAAGAGAG
DNA 2: CTCTCTTTCTCTCTCTCTTCC
Turning to B1, the Kd in data set [2] is 51 ± 4 µM.

What is called Km is the concentration of substrate that gives half-maximal velocity. A word on the Kd: it is the constant that tells how readily two partners part at equilibrium.
